Data from patent US20090092617A1 (K BENHAVNS UNIVERSITET, published 2009).
Where no end group is shown, it is not given here.

T1: Human ErbB4 extracellular part fused to Fc of human IgG1 (human, UniProt Q15303 26-651)
T1 construct: extracellular domain; also called ErbB4-Fc chimeric protein; not shown: Fc region of human IgG1
T1 sequence (looked up): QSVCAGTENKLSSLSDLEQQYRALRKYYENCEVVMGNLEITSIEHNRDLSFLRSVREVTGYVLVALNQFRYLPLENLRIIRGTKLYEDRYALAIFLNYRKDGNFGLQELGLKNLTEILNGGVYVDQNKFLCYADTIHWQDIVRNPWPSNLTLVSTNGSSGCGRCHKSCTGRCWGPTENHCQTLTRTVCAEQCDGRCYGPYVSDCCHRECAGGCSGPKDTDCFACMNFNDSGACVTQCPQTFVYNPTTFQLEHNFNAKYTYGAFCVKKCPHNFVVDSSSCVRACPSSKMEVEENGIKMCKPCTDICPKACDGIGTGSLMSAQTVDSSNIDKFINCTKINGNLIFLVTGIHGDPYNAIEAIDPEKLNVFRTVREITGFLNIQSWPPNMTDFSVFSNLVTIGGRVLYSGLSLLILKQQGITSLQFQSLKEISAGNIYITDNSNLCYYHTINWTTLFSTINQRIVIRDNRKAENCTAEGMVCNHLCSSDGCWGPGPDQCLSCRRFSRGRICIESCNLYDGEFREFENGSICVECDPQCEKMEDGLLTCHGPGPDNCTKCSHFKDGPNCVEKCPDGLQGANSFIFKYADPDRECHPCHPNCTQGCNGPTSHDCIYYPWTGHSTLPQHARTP


What was measured:
[1] = molecular target: T1, Human ErbB4 extracellular part fused to …; test: SPR (BIAcore 2000), peptide dendrimer immobilized, receptor ECD-Fc injected; mean ± SEM
Experimental: (§1) Binding analyses were performed with the surface plasmon resonance (SPR)-based biosensor instrument BIAcore2000 (BIAcore AB, Uppsala, Sweden), at 25° C. using ready-made HBS-EP buffer (BIAcore AB) as running buffer. Peptides were immobilized on the surface of a CM5 sensor chip (BIAcore AB) using an amine coupling kit (Biosensor AB, Uppsala, Sweden) according to the manufacturer's instructions, at a flow rate of 5 μl/min. Briefly, carboxyl groups on the sensor chip surface were activated by injection of 35 μl activation solution followed by injection of peptide (50 μg/ml peptide in HBS-EP buffer, pH 7.4) until the desired level of immobilized peptide was reached. Unreacted peptide was washed out and unreacted activated groups were blocked by the injection of 35 μl 1 M ethanolamine. The final immobilization response was app. 7000-9000 resonance units (RU). A reference surface was generated simultaneously under the same conditions but without peptide injection and used as a blank chip control. ErbB receptor proteins were injected at various concentrations at a flow rate of 20 μl/min, and binding to the peptides immobilized on the chip was measured in real-time. The curve corresponding to the difference between signals on flow cells with immobilized peptide and the signal on the blank flow cell was used for analysis. Each sensorgram consists of an association phase (the first 320 seconds), reflecting binding of the injected receptor to the peptide, and a dissociation phase (app. 300 seconds), during which running buffer is passed over the chip and the bound receptor is being washed off. Data were analyzed by nonlinear curve fitting using the manufacturer' software. The recombinant protein comprising the whole extracellular part of human ErbB1 (also termed the EGF receptor, EGFR) was purchased from Research Diagnostics (Concord, Mass., USA). Recombinant proteins comprising the Fc region of human IgG₁ and the Fc protein fused to the extracellular parts of human ErbB2, ErbB3 or ErbB4 were purchased from R&D Systems Europe (Abingdon, UK).
(§2) The binding of three Inherbin peptides to all four members of the ErbB receptor family was determined using surface plasmon resonance (SPR) binding analysis (table 1).

[2] = molecular target: T2, Human ErbB2 extracellular part fused to Fc of human IgG1 (human, UniProt P04626 23-652); test: as above
T2 construct: extracellular domain; also called ErbB2-Fc chimeric protein; not shown: Fc region of human IgG1
Experimental: as §1, §2

[3] = molecular target: T3, Human ErbB3 extracellular part fused to Fc of human IgG1 (human, UniProt P21860 20-643); test: as above
T3 construct: extracellular domain; also called ErbB3-Fc chimeric protein; not shown: Fc region of human IgG1
T3 sequence (P21860 20-643): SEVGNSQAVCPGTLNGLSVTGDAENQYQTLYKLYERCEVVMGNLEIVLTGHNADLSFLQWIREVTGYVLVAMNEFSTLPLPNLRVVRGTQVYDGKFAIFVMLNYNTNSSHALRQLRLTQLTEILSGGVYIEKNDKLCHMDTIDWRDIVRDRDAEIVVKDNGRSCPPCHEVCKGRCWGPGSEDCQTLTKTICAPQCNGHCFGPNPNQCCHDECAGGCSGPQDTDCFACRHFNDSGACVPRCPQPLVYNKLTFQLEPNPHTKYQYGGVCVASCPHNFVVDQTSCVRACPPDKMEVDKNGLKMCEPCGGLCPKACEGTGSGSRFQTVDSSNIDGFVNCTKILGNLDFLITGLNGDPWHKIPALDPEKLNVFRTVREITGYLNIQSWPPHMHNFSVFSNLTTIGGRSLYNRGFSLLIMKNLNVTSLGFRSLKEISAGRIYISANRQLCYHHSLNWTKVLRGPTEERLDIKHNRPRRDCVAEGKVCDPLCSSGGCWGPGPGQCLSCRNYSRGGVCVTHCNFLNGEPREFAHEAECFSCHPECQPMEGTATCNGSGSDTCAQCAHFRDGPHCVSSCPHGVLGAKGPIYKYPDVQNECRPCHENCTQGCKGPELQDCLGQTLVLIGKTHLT
Experimental: as §1, §2

[4] = molecular target: T4, Recombinant protein comprising the whole extracellular part of human ErbB1 (human, UniProt P00533 25-645); test: SPR (BIAcore 2000), peptide dendrimer immobilized, receptor ECD injected; mean ± SEM
T4 construct: extracellular domain; also called EGF receptor; EGFR
Experimental: (§3) Binding analyses were performed with the surface plasmon resonance (SPR)-based biosensor instrument BIAcore2000 (BIAcore AB, Uppsala, Sweden), at 25° C. using ready-made HBS-EP buffer (BIAcore AB) as running buffer. Peptides were immobilized on the surface of a CM5 sensor chip (BIAcore AB) using an amine coupling kit (Biosensor AB, Uppsala, Sweden) according to the manufacturer's instructions, at a flow rate of 5 μl/min. Briefly, carboxyl groups on the sensor chip surface were activated by injection of 35 μl activation solution followed by injection of peptide (50 μg/ml peptide in HBS-EP buffer, pH 7.4) until the desired level of immobilized peptide was reached. Unreacted peptide was washed out and unreacted activated groups were blocked by the injection of 35 μl 1 M ethanolamine. The final immobilization response was app. 7000-9000 resonance units (RU). […] ErbB receptor proteins were injected at various concentrations at a flow rate of 20 μl/min, and binding to the peptides immobilized on the chip was measured in real-time. […] Data were analyzed by nonlinear curve fitting using the manufacturer' software. […]
as §2

[5] = molecular target: T3, Human ErbB3 extracellular part fused to …; test: SPR (BIAcore 2000), peptide dendrimer immobilized, receptor ECD-Fc injected; mean ± SEM, SEM 8e-9 in r11c2
Experimental: as §3, §2

[6] = molecular target: T4, Recombinant protein comprising the …; test: SPR (BIAcore 2000), peptide dendrimer immobilized, receptor ECD injected; mean ± SEM, SEM 4.9e-9 in r8c2
Experimental: as §3, §2

[7] = molecular target: T1, Human ErbB4 extracellular part fused to …; test: SPR (BIAcore 2000), peptide immobilized on CM5 chip, receptor protein injected
Experimental: as §1, §2

[8] = molecular target: T2, Human ErbB2 extracellular part fused to …; test: as above
Experimental: as §1, §2

Row | Binder | Kd [1] [nM] | Kd [2] [nM] | Kd [3] [nM] | Kd [4] [nM] | Kd [5] [nM] | Kd [6] [nM] | binding result [7] | binding result [8]
1 | FVYNPTTFQLEMNFNAK (also: tetrameric dendrimer: four monomers coupled to a lysine backbone, also called 4DL) [Inherbin4 peptide, tetrameric dendrimer] | 90.4 | 43 | 19.9 | 297 |  |  |  | 
2 | MLYNPTTYQMDVNPEGK (also: tetrameric dendrimer: four monomers coupled to a lysine backbone, It was immobilized on a CM5 chip by amine coupling; also called 1DL) [Inherbin1 peptide, tetrameric dendrimer] |  |  |  |  | 49 | 13.6 | no binding | no binding
3 | LVYNKLTFQLEPNPHTK (also: tetrameric dendrimer: four monomers coupled to a lysine backbone, also called 3DL) [Inherbin3d, tetrameric dendrimer of the Inherbin3 peptide] |  |  | 17.9 | 70 |  |  | no binding (tested: 32 µM (concentration given for FIG. 1)) | no binding (tested: 32 µM (concentration given for FIG. 1))
